Data as given in patent US20190048074A1 (Regeneron, published 2019).
Like-named read-outs stand apart in the source and are kept apart here.

Legend:
full-length human APLNR [1] = target: T1, full-length human APLNR (human, UniProt P35414 1-380); assay: cell-based or functional assay
T1 sequence: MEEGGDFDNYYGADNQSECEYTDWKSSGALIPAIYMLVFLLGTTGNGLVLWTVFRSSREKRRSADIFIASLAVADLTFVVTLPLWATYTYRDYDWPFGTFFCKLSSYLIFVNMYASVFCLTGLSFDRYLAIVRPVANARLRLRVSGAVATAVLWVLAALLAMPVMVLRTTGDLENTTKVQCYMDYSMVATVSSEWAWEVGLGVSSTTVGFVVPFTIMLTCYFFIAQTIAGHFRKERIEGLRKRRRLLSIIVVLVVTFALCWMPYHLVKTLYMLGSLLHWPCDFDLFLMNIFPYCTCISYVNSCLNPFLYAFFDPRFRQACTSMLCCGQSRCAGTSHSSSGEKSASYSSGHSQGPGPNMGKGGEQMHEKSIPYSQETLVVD

full-length human APLNR [2] = target: T1, full-length human APLNR; assay: FACS, 10 µg/mL antibody, HEK293/CRE-luc/hAPLNR cells
[3] = target: T2, full length cynomolgus APLNR (cynomolgus monkey (Macaca fascicularis), UniProt O97666 1-380 (rhesus entry)); assay: FACS, 10 µg/mL antibody, HEK293/CRE-luc/MfAPLNR cells
T2 construct: Stably expressed on HEK293/CRE-luc/MfAPLNR cells; also called MfAPLNR; mfAPLNR
T2 sequence: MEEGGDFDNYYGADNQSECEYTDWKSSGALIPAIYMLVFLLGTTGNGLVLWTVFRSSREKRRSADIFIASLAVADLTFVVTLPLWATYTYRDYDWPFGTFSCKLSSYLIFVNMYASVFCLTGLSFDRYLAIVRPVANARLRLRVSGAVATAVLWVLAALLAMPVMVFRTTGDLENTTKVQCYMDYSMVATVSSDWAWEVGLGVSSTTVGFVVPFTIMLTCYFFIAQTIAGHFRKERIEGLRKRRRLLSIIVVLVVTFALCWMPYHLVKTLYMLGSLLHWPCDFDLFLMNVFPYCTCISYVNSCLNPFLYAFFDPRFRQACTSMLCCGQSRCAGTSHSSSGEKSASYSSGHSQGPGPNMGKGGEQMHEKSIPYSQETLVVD

full-length human APLNR [4] = target: T1, full-length human APLNR; assay: FACS, 10 µg/mL antibody, HEK293/CRE-luc/hAPLNR cells; remark: listed apart in the source
[5] = target: T2, full length cynomolgus APLNR; assay: FACS, 10 µg/mL antibody, HEK293/CRE-luc/MfAPLNR cells; remark: listed apart in the source
full-length human APLNR [6] = target: T1, full-length human APLNR; assay: cell-based or functional assay; remark: listed apart in the source
full-length human APLNR [7] = target: T1, full-length human APLNR; assay: cell-based or functional assay; remark: listed apart in the source

B1: H1M9207N (antibody, V domains shown)
VH: EVQLVESGGGLAQPGGSLRLSCAASGFTFSNYWMSWVRQAPGKGLEWVANIKQDGSEKYYLESVKGRFTISRDNAKNLLYLQMNSLRAEDTAVFYCARPGLLRFLEPGRRYYSGMNVWGQGTTVTVSS
VL: DIQLTQSPSFLSASVGDRVTITCWASQGIRSYLAWYQQKPGKAPKLLIYAASTLQSGVPSRFSGSGSGTEFTLTISSLQPEDFATYYCQQFNSYPWTFGQGTKVEIK
notes: Human variable domains, mouse IgG1 Fc (H1M prefix)
% Inhibition at 100 nM antibody, in the presence of 100 ρM Apelin (at 5 µM Forskolin) (full-length human APLNR [1]): 83% | IC50 [M], in the presence of 100 ρM Apelin (at 5 µM Forskolin) (full-length human APLNR [1]): 3e-09 M | Binding Ratio of Geom. Mean to Unstained Cells (full-length human APLNR [2]): 2180 fold | Binding Ratio of Geom. Mean to Unstained Cells [3]: 1310 fold

B2: H4H9101P (antibody, V domains shown)
VH: QVQLVQSGAEVKKPGASVEVSCKASGYTFTDYYIHWIRQAPGQGLEWMGWINPDSGRTNYAQKFQVRVTMTRDTSITTAYMELNRLKSDDTAVYYCARGPLRGYSGYDFFDYWGQGTLVTVSS
VL: DIQLTQSPSFLSASVGDRVTITCWASQGISSYLAWYQQKPGKAPKLLIYAASTLQSGVPSRFSGSGSGTEFTLTISSLQPEDFASYFCQQLNSNPRTFGQGTKVEIK
notes: Fully human, human IgG4 Fc
Binding Ratio of Geom. Mean to Unstained Cells (full-length human APLNR [4]): 3 fold | Binding Ratio of Geom. Mean to Unstained Cells [5]: 2 fold

B3: H4H9112P (antibody, V domains shown)
VH: QVQLVQSGAEVKKPGASVEVSCKASGYTFTDYYIHWIRQAPGQGLEWMGWINPDSGRTNYAQKFQVRVTMTRDTSITTAYMELNRLKSDDTAVYYCARGPLRGYSGYDFFDYWGQGTLVTVSS
VL: DIQMTQSPSSLSAFVGDRVTITCRASQSISSYLNWYQQKPGKAPKLLIYTASTLQRGVPSRFRGSGSGTDFTLTISSLQPEDFATYYCHQTYSIPITFGQGTRLEIK
notes: Fully human, human IgG4 Fc
Binding Ratio of Geom. Mean to Unstained Cells (full-length human APLNR [4]): 2 fold | Binding Ratio of Geom. Mean to Unstained Cells [5]: 2 fold

B4: H4H9104P (antibody, V domains shown)
VH: QVQLVESGGDLVKPGGSLRLSCAASGFTFSDYYMNWIRQAPGKGLEWVSYISSSGSTIHYADSVKGRFTISRDNAKNLVYLRMNSLRAEDTAVYFCAREREVHDYSDPYFFFYGMDVWGQGTTVTVSS
VL: DIQMTQSPSSVSASVGDRVTITCRASQDVSSWLAWYQHKPGKAPKLLIFAASSLQSGVPSRFSGSGSGTDFTLTISSLQSEDFATYYCQQANSFPLTFGGGTKVEIK
notes: Fully human, human IgG4 Fc
Binding Ratio of Geom. Mean to Unstained Cells (full-length human APLNR [4]): 2 fold | Binding Ratio of Geom. Mean to Unstained Cells [5]: 1 fold

B5: H4H9103P (antibody, V domains shown)
VH: EVQLVESGGGLVQPGRSLRLSCAASGFTFDDYAMHWVRQVPGKGLEWVSGITWNSGDIGYADSVKGRFTISRDNAKNSLYLQMNSLRAEDTALYYCTKDKDSSGYYGIDVWGQGTTVTVSS
VL: DIQMTQSPSSVSASVGDRVTITCRASQGIRTWLAWYQQKPGKAPKLLIYAASSLQSGVPSRFSGSESGTDFTLTISSLQPEDFATYYCQQANSFPFTFGPGTKVDIK
notes: Fully human, human IgG4 Fc
Binding Ratio of Geom. Mean to Unstained Cells (full-length human APLNR [4]): 3 fold | Binding Ratio of Geom. Mean to Unstained Cells [5]: 2 fold

B6: H2aM9222N (antibody, V domains shown)
VH: EVQLVESGGGLVQPGGSLRLSCAASGFTFSNYWMSWVRQAPGKGLEWVANIKQDGSERYYVGSVKGRFTISRGDAENSLYLQMNSLRAEDTAVYYCARDRFGYSAYDKGVRYYYGMDVWGQGTTVTVSS
VL: DIQMTQSPSSLSASVGDRVTITCRASQGIRNDLGWYQQKPGKAPKRLIYAASSLQSGVPSRFSGSGSGTEFTLTISSLQPEDFATYYCLQHNSYPRTFGQGTKVEIK
notes: Human variable domains, mouse IgG2a Fc
% Activation at 500 nM mAb (at 7.5 uM Forskolin) (full-length human APLNR [6]): 21% | % Inhibition at 100 nM antibody, in the presence of 100 ρM Apelin (at 5 µM Forskolin) (full-length human APLNR [1]): 11% | Activating EC50 (M), pERK/total ERK assay, CHO/hAPLNR cells (full-length human APLNR [7]): 4.79e-08 M

B7: H2aM9230N (antibody, V domains shown)
VH: EVQLVESGGGLVQPGGSLRLSCAASGFTFSSFWMSWVRQVPGKGLQWVANIKQDGSEKYYVDSVKGRFTISRDNAKNSLYLQMNSLRAEDTAVYYCARDRFGYSVYDKGVRYYYGMDVWGQGTTVTVSS
VL: DIQMTQSPSSLSVSVGDRVTITCRASQGIRNDLGWYQQKPGKAPKRLIYAASSLQSGVPSRFSGSGSGTEFTLTISGLQSEDFATYYCLQHKSYPRTFGQGTKVEIK
notes: as for B6
% Activation at 500 nM mAb (at 7.5 uM Forskolin) (full-length human APLNR [6]): 52% | % Inhibition at 100 nM antibody, in the presence of 100 ρM Apelin (at 5 µM Forskolin) (full-length human APLNR [1]): 49% | IC50 [M], in the presence of 100 ρM Apelin (at 5 µM Forskolin) (full-length human APLNR [1]): 2.4e-09 M | Binding Ratio of Geom. Mean to Unstained Cells (full-length human APLNR [2]): 2940 fold | Binding Ratio of Geom. Mean to Unstained Cells [3]: 658 fold

B8: H4H9113P (antibody, V domains shown)
VH: QVQLVQSGAEVKKPGASVEVSCKASGYTFTDYYIHWIRQAPGQGLEWMGWINPDSGRTNYAQKFQVRVTMTRDTSITTAYMELNRLKSDDTAVYYCARGPLRGYSGYDFFDYWGQGTLVTVSS
VL: DIQMTQSPSSLSASVGDRVTITCRASQGIRNDLGWYQQKPGKAPNRLIYAASSLQSGVPSRFSGSGSGTEFTLTISSLHPEDFATYSCLQHNSFPLTFGGGTKVEIK
notes: Fully human, human IgG4 Fc
Binding Ratio of Geom. Mean to Unstained Cells (full-length human APLNR [4]): 2 fold | Binding Ratio of Geom. Mean to Unstained Cells [5]: 1 fold

B9: H2aM9227N (antibody, V domains shown)
VH: EVQLVESGGGLVQPGGSLRLSCAASGFTFSSFWMSWVRQVPGKGLEWVANIKQDGSEKYYVDSVKGRFTISRDNAKNSLYLQMNSLRAEDTAVYYCARDRFGYSFYDKGVRYYYGMDVWGQGTTVTVSS
VL: DIQMTQSPSSLSVSVGDRVTITCRASQGIRNDLGWYQQKPGKAPKRLIYATSSLQSGVPSRFSGSGSGTEFTLTISGLQPEDFATYYCLQHNSYPRTFGQGTKVEIK
notes: as for B6
% Activation at 500 nM mAb (at 7.5 uM Forskolin) (full-length human APLNR [6]): 45% | % Inhibition at 100 nM antibody, in the presence of 100 ρM Apelin (at 5 µM Forskolin) (full-length human APLNR [1]): 33% | IC50 [M], in the presence of 100 ρM Apelin (at 5 µM Forskolin) (full-length human APLNR [1]): 4.3e-09 M | Binding Ratio of Geom. Mean to Unstained Cells (full-length human APLNR [2]): 4100 fold | Binding Ratio of Geom. Mean to Unstained Cells [3]: 1440 fold

B10: H2aM9228N (antibody, V domains shown)
VH: EVQLVESGGGLVQPGGSLRLSCAASGFTFSNYWMSWVRLAPGKGLEWVANIKQDGSERYYVGSVKGRFTISRGDAKNSLYLQMNSLRAEDTAVYYCARDRFGYSAFDKGVRYYYGMDVWGQGTTVTVSS
VL: DIQMTQSPSSLSASVGDRVTITCRASQGIRNDLGWYQQKPGKAPKRLIYAASSLQSGVPSRFSGSGSGTEFTLTISSLQPEDFATYYCLQHNSYPRTFGQGTKVEIK
notes: as for B6
% Activation at 500 nM mAb (at 7.5 uM Forskolin) (full-length human APLNR [6]): 49% | % Inhibition at 100 nM antibody, in the presence of 100 ρM Apelin (at 5 µM Forskolin) (full-length human APLNR [1]): 26% | IC50 [M], in the presence of 100 ρM Apelin (at 5 µM Forskolin) (full-length human APLNR [1]): > 1e-07 M | Activating EC50 (M), pERK/total ERK assay, CHO/hAPLNR cells (full-length human APLNR [7]): 6.41e-08 M | Binding Ratio of Geom. Mean to Unstained Cells (full-length human APLNR [2]): 1490 fold | Binding Ratio of Geom. Mean to Unstained Cells [3]: 108 fold

B11: H2aM9209N (antibody, V domains shown)
VH: EVQLLESGGGLVQPGGSLRLSCAASGFTFSNYAMNWVRQAPGRGLEWVSAIHYDGSNSYYADSVKGRFTISRDNSKNTLYLQMNSLRAEDTAIYYCAILSRVYWGQGTLVTVSS
VL: DIQMTQSPSSLSASVGDRVTITCRASQGINNYLAWFQQKPGKAPKSLIYATSSLQSGVPSKFSGSGSGTDFTLTISSLQPEDFATYYCQQYNSYPLTFGGGTKVEIK
% Inhibition at 100 nM antibody, in the presence of 100 ρM Apelin (at 5 µM Forskolin) (full-length human APLNR [1]): 7%

B12: H2aM9232N (antibody, V domains shown)
VH: QVKLVESGGGVVQPGRSLRLSCAASGFTFSNYVIHWVRQAPGKGLEWVAVIWYDGSNKYYADSVKGRFTISRDNSKNTLYLQMNSLRAEDTAVYYCARDRVVRGVDYYYYYGLDVWGQGTSVTVSS
VL: EIVMTQSPATLSVSPGERATLSCRASQSVRSNLAWYQQKPGQAPRLLIYGASSRATGIPARFSGTGSGTEFTLTISSLQSDDFAVYYCQQYNKWPRTFGQGTKVEIK
notes: as for B6
% Inhibition at 100 nM antibody, in the presence of 100 ρM Apelin (at 5 µM Forskolin) (full-length human APLNR [1]): 98% | IC50 [M], in the presence of 100 ρM Apelin (at 5 µM Forskolin) (full-length human APLNR [1]): 4.2e-09 M | Inhibiting IC50 (M), pERK/total ERK assay, CHO/hAPLNR cells (full-length human APLNR [7]): 2.09e-07 M | Binding Ratio of Geom. Mean to Unstained Cells (full-length human APLNR [2]): 2860 fold | Binding Ratio of Geom. Mean to Unstained Cells [3]: 678 fold
